# In IntAct's records for PubMed 31515488:
# B1: Break repair meiotic recombinase recruitment factor 1 (Homo sapiens), Q0VDD7 (parent)
# chain: MTKRKKLRTSGEGLCPPKPLKNPRLGDFYGDPQSSMLGCLHHPEEPEGKLGPVPSTQQHGEEPGKAVSSSPDEETGSPCRLLRQPEKEPAPLPPSQNSFGRFVPQFAKSRKTVTRKEEMKDEDRGSGAFSLETIAESSAQSPGCQLLVETLGVPLQEATELGDPTQADSARPEQSSQSPVQAVPGSGDSQPDDPPDRGTGLSASQRASQDHLSEQGADDSKPETDRVPGDGGQKEHLPSIDSEGEKPDRGAPQEGGAQRTAGAGLPGGPQEEGDGVPCTPASAPTSGPAPGLGPASWCLEPGSVAQGSPDPQQTPSRMGREGEGTHSSLGCSSLGMVVIADLSTDPTELEERALEVAGPDGQASAISPASPRRKAADGGHRRALPGCTSLTGETTGESGEAGQDGKPPGDVLVGPTASLALAPGSGESMMGAGDSGHASPDTGPCVNQKQEPGPAQEEAELGGQNLERDLEGFRVSPQASVVLEHREIADDPLQEPGAQQGIPDTTSELAGQRDHLPHSADQGTWADSLAVELDFLLDSQIQDALDASDFEAPPEQLFPSGNKPGPCWPGPSSHANGDPVAVAKAQPRTFVGIQASEASRMEDATNVVRGLIVELSNLNRLIMGTHRDLEAFKRLNYRKTKLGGKAPLPYPSKGPGNIPRGDPPWREL
# partner: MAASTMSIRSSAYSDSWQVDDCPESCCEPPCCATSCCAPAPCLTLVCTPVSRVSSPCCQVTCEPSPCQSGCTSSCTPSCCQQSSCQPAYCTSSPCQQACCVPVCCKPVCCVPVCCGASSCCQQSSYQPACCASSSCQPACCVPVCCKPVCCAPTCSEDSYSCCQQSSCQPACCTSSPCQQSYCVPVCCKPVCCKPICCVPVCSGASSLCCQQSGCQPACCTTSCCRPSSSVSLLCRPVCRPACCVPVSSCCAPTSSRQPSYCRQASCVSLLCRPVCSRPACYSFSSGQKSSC
# B2: Macrophage scavenger receptor types I and II (Homo sapiens), P21757 (parent)
# chain: MEQWDHFHNQQEDTDSCSESVKFDARSMTALLPPNPKNSPSLQEKLKSFKAALIALYLLVFAVLIPLIGIVAAQLLKWETKNCSVSSTNANDITQSLTGKGNDSEEEMRFQEVFMEHMSNMEKRIQHILDMEANLMDTEHFQNFSMTTDQRFNDILLQLSTLFSSVQGHGNAIDEISKSLISLNTTLLDLQLNIENLNGKIQENTFKQQEEISKLEERVYNVSAEIMAMKEEQVHLEQEIKGEVKVLNNITNDLRLKDWEHSQTLRNITLIQGPPGPPGEKGDRGPTGESGPRGFPGPIGPPGLKGDRGAIGFPGSRGLPGYAGRPGNSGPKGQKGEKGSGNTLTPFTKVRLVGGSGPHEGRVEILHSGQWGTICDDRWEVRVGQVVCRSLGYPGVQAVHKAAHFGQGTGPIWLNEVFCFGRESSIEECKIRQWGTRACSHSEDAGVTCTL
# partner: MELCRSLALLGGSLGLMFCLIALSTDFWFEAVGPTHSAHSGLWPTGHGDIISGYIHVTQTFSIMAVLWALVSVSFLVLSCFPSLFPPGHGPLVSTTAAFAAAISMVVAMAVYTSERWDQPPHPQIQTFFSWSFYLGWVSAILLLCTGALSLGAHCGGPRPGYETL
# B3: F-BAR domain only protein 1 (Homo sapiens), O14526 (parent)
# chain: MSYFGEHFWGEKNHGFEVLYHSVKQGPISTKELADFIRERATIEETYSKAMAKLSKLASNGTPMGTFAPLWEVFRVSSDKLALCHLELTRKLQDLIKDVLRYGEEQLKTHKKCKEEVVSTLDAVQVLSGVSQLLPKSRENYLNRCMDQERLRRESTSQKEMDKAETKTKKAAESLRRSVEKYNSARADFEQKMLDSALRFQAMEETHLRHMKALLGSYAHSVEDTHVQIGQVHEEFKQNIENVSVEMLLRKFAESKGTGREKPGPLDFEAYSAAALQEAMKRLRGAKAFRLPGLSRREREPEPPAAVDFLEPDSGTCPEVDEEGFTVRPDVTQNSTAEPSRFSSSDSDFDDEEPRKFYVHIKPAPARAPACSPEAAAAQLRATAGSLILPPGPGGTMKRHSSRDAAGKPQRPRSAPRTSSCAERLQSEEQVSKNLFGPPLESAFDHEDFTGSSSLGFTSSPSPFSSSSPENVEDSGLDSPSHAAPGPSPDSWVPRPGTPQSPPSCRAPPPEARGIRAPPLPDSPQPLASSPGPWGLEALAGGDLMPAPADPTAREGLAAPPRRLRSRKVSCPLTRSNGDLSRSLSPSPLGSSAASTALERPSFLSQTGHGVSRGPSPVVLGSQDALPIATAFTEYVHAYFRGHSPSCLARVTGELTMTFPAGIVRVFSGTPPPPVLSFRLVHTTAIEHFQPNADLLFSDPSQSDPETKDFWLNMAALTEALQRQAEQNPTASYYNVVLLRYQFSRPGPQSVPLQLSAHWQCGATLTQVSVEYGYRPGATAVPTPLTNVQILLPVGEPVTNVRLQPAATWNLEEKRLTWRLPDVSEAGGSGRLSASWEPLSGPSTPSPVAAQFTSEGTTLSGVDLELVGSGYRMSLVKRRFATGMYLVSC
# partner: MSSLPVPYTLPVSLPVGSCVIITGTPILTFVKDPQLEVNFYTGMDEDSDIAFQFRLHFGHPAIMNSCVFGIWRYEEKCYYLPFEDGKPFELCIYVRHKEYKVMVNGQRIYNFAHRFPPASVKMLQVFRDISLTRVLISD
# B4: Proto-oncogene serine/threonine-protein kinase mos (Homo sapiens), P00540 (parent)
# chain: MPSPLALRPYLRSEFSPSVDARPCSSPSELPAKLLLGATLPRAPRLPRRLAWCSIDWEQVCLLQRLGAGGFGSVYKATYRGVPVAIKQVNKCTKNRLASRRSFWAELNVARLRHDNIVRVVAASTRTPAGSNSLGTIIMEFGGNVTLHQVIYGAAGHPEGDAGEPHCRTGGQLSLGKCLKYSLDVVNGLLFLHSQSIVHLDLKPANILISEQDVCKISDFGCSEKLEDLLCFQTPSYPLGGTYTHRAPELLKGEGVTPKADIYSFAITLWQMTTKQAPYSGERQHILYAVVAYDLRPSLSAAVFEDSLPGQRLGDVIQRCWRPSAAQRPSARLLLVDLTSLKAELG
# partner: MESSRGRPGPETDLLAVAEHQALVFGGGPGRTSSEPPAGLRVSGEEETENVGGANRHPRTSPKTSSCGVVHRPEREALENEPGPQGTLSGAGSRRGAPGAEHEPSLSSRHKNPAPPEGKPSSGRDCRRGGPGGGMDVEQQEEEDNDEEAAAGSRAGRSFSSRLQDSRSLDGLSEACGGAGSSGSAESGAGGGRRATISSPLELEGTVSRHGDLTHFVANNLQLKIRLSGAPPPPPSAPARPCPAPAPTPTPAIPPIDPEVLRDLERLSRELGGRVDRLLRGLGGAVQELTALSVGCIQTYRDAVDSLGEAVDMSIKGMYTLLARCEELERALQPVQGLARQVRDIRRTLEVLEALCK
# B5: Ribosome quality control complex subunit TCF25 (Homo sapiens), Q9BQ70 (parent)
# chain: MSRRALRRLRGEQRGQEPLGPGALHFDLRDDDDAEEEGPKRELGVRRPGGAGKEGVRVNNRFELINIDDLEDDPVVNGERSGCALTDAVAPGNKGRGQRGNTESKTDGDDTETVPSEQSHASGKLRKKKKKQKNKKSSTGEASENGLEDIDRILERIEDSTGLNRPGPAPLSSRKHVLYVEHRHLNPDTELKRYFGARAILGEQRPRQRQRVYPKCTWLTTPKSTWPRYSKPGLSMRLLESKKGLSFFAFEHSEEYQQAQHKFLVAVESMEPNNIVVLLQTSPYHVDSLLQLSDACRFQEDQEMARDLVERALYSMECAFHPLFSLTSGACRLDYRRPENRSFYLALYKQMSFLEKRGCPRTALEYCKLILSLEPDEDPLCMLLLIDHLALRARNYEYLIRLFQEWEAHRNLSQLPNFAFSVPLAYFLLSQQTDLPECEQSSARQKASLLIQQALTMFPGVLLPLLESCSVRPDASVSSHRFFGPNAEISQPPALSQLVNLYLGRSHFLWKEPATMSWLEENVHEVLQAVDAGDPAVEACENRRKVLYQRAPRNIHRHVILSEIKEAVAALPPDVTTQSVMGFDPLPPSDTIYSYVRPERLSPISHGNTIALFFRSLLPNYTMEGERPEEGVAGGLNRNQGLNRLMLAVRDMMANFHLNDLEAPHEDDAEGEGEWD
# partner: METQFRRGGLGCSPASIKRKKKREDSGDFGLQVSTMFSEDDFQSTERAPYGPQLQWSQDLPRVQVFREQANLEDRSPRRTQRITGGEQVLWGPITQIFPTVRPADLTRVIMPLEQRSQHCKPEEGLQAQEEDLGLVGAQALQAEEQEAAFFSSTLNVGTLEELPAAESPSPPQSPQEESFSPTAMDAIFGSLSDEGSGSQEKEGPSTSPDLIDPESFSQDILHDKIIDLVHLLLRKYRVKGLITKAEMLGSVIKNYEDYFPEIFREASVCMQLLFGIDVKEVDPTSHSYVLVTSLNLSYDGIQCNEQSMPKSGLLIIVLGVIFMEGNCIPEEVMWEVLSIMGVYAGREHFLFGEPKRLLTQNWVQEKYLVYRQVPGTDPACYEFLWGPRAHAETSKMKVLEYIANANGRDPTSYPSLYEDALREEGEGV
# B6: PDCD10 and GCKIII kinases-associated protein 1 (Homo sapiens), Q8IY42 (parent)
# chain: MGCRCCKIIQSYLFDPVQVPSPGYVNEVNSCKLDEDDTDKLKGKWSSEVLVQKNDPQRQGSKKTESSSRTADPWEPCWPHQGPLPQGDAGGEHHACGVNGIGPAATPQPTGNSSPTQDDRGSWASTANTVPPTQPFLEGGGTRKQDCVLLASEGTQVMRNGDSRAPSEAESFALEVQDHVFQIPAPDYLQHWGPAGDNVDHNEKDCVFKNHTEDESLEGIQPPVGEHGLNTPFSVRRSWDSLNEDVETEVLSICFNEKGPVHAMPVVDSGNRQEDTHGSDGDGDGEIVDEDAAVAEALAALEAATAGEDLDETD
# Variants of: B1
# Settings: with kr109_human KRTAP10-9, P60411
row,Variant,effect of a mutation on the interaction
1,L155F,with no effect
2,Q500R,with no effect
3,N576S,with no effect

# Variants of: B2
# Settings: with nkg7_human NKG7, Q16617
row,Variant,effect of a mutation on the interaction
1,P346L,with no effect
2,V113A,with no effect
3,P275A,with no effect

# Variants of: B3
# Settings: with ppl13_human LGALS14, Q8TCE9
row,Variant,effect of a mutation on the interaction
1,E423G,with no effect

# Variants of: B4
# Settings: with borc6_human BORCS6, Q96GS4
row,Variant,effect of a mutation on the interaction
1,A105S,with no effect
2,A123T,disrupting interaction strength

# Variants of: B5
# Settings: with magab_human MAGEA11, P43364
row,Variant,effect of a mutation on the interaction
1,V526A,with no effect

# Variants of: B6
# Settings: with pdc10_human PDCD10, Q9BUL8
# Sequence of pdc10_human PDCD10, Q9BUL8 (Q9BUL8 whole entry): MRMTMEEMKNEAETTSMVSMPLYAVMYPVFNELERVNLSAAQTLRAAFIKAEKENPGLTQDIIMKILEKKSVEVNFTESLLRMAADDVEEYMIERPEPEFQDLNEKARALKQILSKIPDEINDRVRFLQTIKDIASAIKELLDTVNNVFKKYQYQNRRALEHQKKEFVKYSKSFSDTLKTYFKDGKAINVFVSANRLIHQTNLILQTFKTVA
row,Variant,effect of a mutation on the interaction
1,A151T,with no effect

# Variants of: B6
# Settings: with eif3e_human EIF3E
row,Variant,effect of a mutation on the interaction
1,A151T,with no effect
